Laboratory results as given in the supplement of paper PMC3353916.
± gives the standard deviation of the averaged measurements.

Test system: Sindbis virus TE/5'2J-GFP
Assay: percent infected (GFP+ in RFP+ ISG-expressing cells); higher = more infection (less antiviral activity)
Protocol: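 Confirmatory testing of 87 ISGs. Triplicate wells of BHK/HA-Zeo (control) or BHK/NZAP-Zeo (ZAP) cells were transduced with lentiviruses co-expressing a human ISG plus TagRFP, then infected 48 h later with SINV TE/5'2J-GFP (moi 5). The % GFP+ cells among RFP+ cells was measured by flow cytometry at 8 h post infection. Fluc lentivirus served as control. Three independent experiments.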

[1] = experiment: confirmatory screen 1, BHK/HA-Zeo (control)
[2] = experiment: confirmatory screen 1, BHK/NZAP-Zeo (ZAP)
[3] = experiment: confirmatory screen 2, BHK/HA-Zeo (control)
[4] = experiment: confirmatory screen 2, BHK/NZAP-Zeo (ZAP)
[5] = experiment: confirmatory screen 3, BHK/HA-Zeo (control)
[6] = experiment: confirmatory screen 3, BHK/NZAP-Zeo (ZAP)
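Also: Interferon-defective BHK-21 derivatives, ZAP line overexpressing the rat ZAP N-terminal zinc finger domain fused to Zeocin resistance, GFP scored within live singlet TagRFP+ cells.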

Sequence | percent infected [1] | percent infected [2] | percent infected [3] | percent infected [4] | percent infected [5] | percent infected [6]
MNTRNRVVNSGLGASPASRPTRDPQDPSGRQGELSPVEDQREGLEAAPKGPSRESVVHAGQRRTSAYTLIAPNINRRNEIQRIAEQELANLEKWKEQNRAKPVHLVPRRLGGSQSETEVRQKQQLQLMQSKYKQKLKREESVRIKKEAEEAELQKMKAIQREKSNKLEEKKRLQENLRREAFREHQQYKTAEFLSKLNTESPDRSACQSAVCGPQSSTWKLPILPRDHSWARSWAYRDSLKAEENRKLQKMKDEQHQKSELLELKRQQQEQERAKIHQTEHRRVNNAFLDRLQGKSQPGGLEQSGGCWNMNSGNSWGI [EPSTI1] | 96.8 ± 1.1% | 68.2 ± 2.1% | 96.8 ± 1.1% | 95.946 ± 0.041% | 94.88 ± 0.77% | 94.41 ± 0.1%
MPGKKARKNAQPSPARAPAELEVECATQLRRFGDKLNFRQKLLNLISKLFCSGT [PMAIP1] | 94.9 ± 1.1% | 87.9 ± 2.1% | 95.11 ± 0.24% | 93.22 ± 0.27% | 92.03 ± 0.31% | 92.36 ± 0.16%
MPITRMRMRPWLEMQINSNQIPGLIWINKEEMIFQIPWKHAAKHGWDINKDACLFRSWAIHTGRYKAGEKEPDPKTWKANFRCAMNSLPDIEEVKDQSRNKGSSAVRVYRMLPPLTKNQRKERKSKSSRDAKSKAKRKSCGDSSPDTFSDGLSSSTLPDDHSSYTVPGYMQDLEVEQALTPALSPCAVSSTLPDWHIPVEVVPDSTSDLYNFQVSPMPSTSEATTDEDEEGKLPEDIMKLLEQSEWQPTNVDGKGYLLNEPGVQPTSVYGDFSCKEEPEIDSPGGDIGLSLQRVFTDLKNMDATWLDSLLTPVRLPSIQAIPCAP [IRF1] | 67.2 ± 42% | 10.7 ± 6.3% | 61.6 ± 1.6% | 1.14 ± 0.73% | 29.2 ± 22% | 0.16 ± 0.079%
MPRQLSAAAALFASLAVILHDGSQMRAKAFPETRDYSQPTAAATVQDIKKPVQQPAKQAPHQTLAARFMDGHITFQTAATVKIPTTTPATTKNTATTSPITYTLVTTQATPNNSHTAPPVTEVTVGPSLAPYSLPPTITPPAHTTGTSSSTVSHTTGNTTQPSNQTTLPATLSIALHKSTTGQKPVQPTHAPGTTAAAHNTTRTAAPASTVPGPTLAPQPSSVKTGIYQVLNGSRLCIKAEMGIQLIVQDKESVFSPRRYFNIDPNATQASGNCGTRKSNLLLNFQGGFVNLTFTKDEESYYISEVGAYLTVSDPETIYQGIKHAVVMFQTAVGHSFKCVSEQSLQLSAHLQVKTTDVQLQAFDFEDDHFGNVDECSSDYTIVLPVIGAIVVGLCLMGMGVYKIRLRCQSSGYQRI [LAMP3] | 95.8 ± 1.7% | 52.1 ± 5.6% | 97.55 ± 0.14% | 96.16 ± 0.23% | 86.4 ± 2.6% | 89.93 ± 0.19%
MPSLWDRFSSSSTSSSPSSLPRTPTPDRPPRSAWGSATREEGFDRSTSLESSDCESLDSSNSGFGPEEDTAYLDGVSLPDFELLSDPEDEHLCANLMQLLQESLAQARLGSRRPARLLMPSQLVSQVGKELLRLAYSEPCGLRGALLDVCVEQGKSCHSVGQLALDPSLVPTFQLTLVLRLDSRLWPKIQGLFSSANSPFLPGFSQSLTLSTGFRVIKKKLYSSEQLLIEEC [DDIT4] | 95.2 ± 1.2% | 76.2 ± 2.5% | 96.4 ± 0.11% | 94.99 ± 0.17% | 94.1 ± 0.29% | 92.99 ± 0.24%
MPVERMRMRPWLEEQINSNTIPGLKWLNKEKKIFQIPWMHAARHGWDVEKDAPLFRNWAIHTGKHQPGVDKPDPKTWKANFRCAMNSLPDIEEVKDKSIKKGNNAFRVYRMLPLSERPSKKGKKPKTEKEDKVKHIKQEPVESSLGLSNGVSDLSPEYAVLTSTIKNEVDSTVNIIVVGQSHLDSNIENQEIVTNPPDICQVVEVTTESDEQPVSMSELYPLQISPVSSYAESETTDSVPSDEESAEGRPHWRKRNIEGKQYLSNMGTRGSYLLPGMASFVTSNKPDLQVTIKEESNPVPYNSSWPPFQDLPLSSSMTPASSSSRPDRETRASVIKKTSDITQARVKSC [IRF2] | 81 ± 3.7% | 2.58 ± 0.4% | 94.34 ± 0.74% | 60.4 ± 1.6% | 89.4 ± 1.2% | 39.2 ± 2.8%
MQEGELAISPISPVAAMPPLGTHVQARCEAQINLLGEGGICKLPGRLRIQPALWSREDVLHWLRWAEQEYSLPCTAEHGFEMNGRALCILTKDDFRHRAPSSGDVLYELLQYIKTQRRALVCGPFFGGIFRLKTPTQHSPVPPEEVTGPSQMDTRRGHLLQPPDPGLTSNFGHLDDPGLARWTPGKEESLNLCHCAELGCRTQGVCSFPAMPQAPIDGRIADCRLLWDYVYQLLLDTRYEPYIKWEDKDAKIFRVVDPNGLARLWGNHKNRVNMTYEKMSRALRHYYKLNIIKKEPGQKLLFRFLKTPGKMVQDKHSHLEPLESQEQDRIEFKDKRPEISP [ETV7] | 95.31 ± 0.45% | 67.2 ± 4% | 95.82 ± 0.54% | 95.28 ± 0.2% | 93 ± 1.6% | 93.56 ± 0.55%
MRRLWGAARKPSGAGWEKEWAEAPQEAPGAWSGRLGPGRSGRKGRAVPGWASWPAHLALAARPARHLGGAGQGPRPLHSGTAPFHSRASGERQRRLEPQLQHESRCRSSTPADAWRAEAALPVRAMGAPWGSPTAAAGGRRGWRRGRGLPWTVCVLAAAGLTCTALITYACWGQLPPLPWASPTPSRPVGVLLWWEPFGGRDSAPRPPPDCRLRFNISGCRLLTDRASYGEAQAVLFHHRDLVKGPPDWPPPWGIQAHTAEEVDLRVLDYEEAAAAAEALATSSPRPPGQRWVWMNFESPSHSPGLRSLASNLFNWTLSYRADSDVFVPYGYLYPRSHPGDPPSGLAPPLSRKQGLVAWVVSHWDERQARVRYYHQLSQHVTVDVFGRGGPGQPVPEIGLLHTVARYKFYLAFENSQHLDYITEKLWRNALLAGAVPVVLGPDRANYERFVPRGAFIHVDDFPSASSLASYLLFLDRNPAVYRRYFHWRRSYAVHITSFWDEPWCRVCQAVQRAGDRPKSIRNLASWFER [FUT4] | 94.45 ± 0.48% | 62.4 ± 5.3% | 92 ± 1.1% | 94.23 ± 0.27% | 89 ± 2.8% | 92.68 ± 0.55%
MRSARSTALNRGEQRAVRYYSHMKLNMAEEEDYMSDSFINVQEDIRPGLPMLRQIREARRKEEKQQEANLKNRQKSLKEEEQERRDIGLKNALGCENKGFALLQKMGYKSGQALGKSGGGIVEPIPLNIKTGKSGIGHEASLKRKAEEKLESYRKKIHMKNQAEEKAAEQFRMRLKNKQDEMKLEGDLRRSQRACQQLDVQKNIQVPREAWYWLRLEEETEEDEEEKEQDEDEYKSEDLSVLEKLQILTSYLREEHLYCIWCGTAYEDKEDLSSNCPGPTSADHD [CCDC75] | 93.8 ± 1.8% | 56.8 ± 4.7% | 96.02 ± 0.47% | 95.39 ± 0.41% | 94.54 ± 0.85% | 92.82 ± 0.32%
MRSRLLLSVAHLPTIRETTEEMLLGGPGQEPPPSPSLDDYVRSISRLAQPTSVLDKATAQGQPRPPHRPAQACRKGRPAVSLRDITARFSGQQPTLPMADTVDPLDWLFGESQEKQPSQRDLPRRTGPSAGLWGPHRQMDSSKPMGAPRGRLCEARMPGHSLARPPQDGQQSSDLRSWTFGQSAQAMASRHRPRPSSVLRTLYSHLPVIHEL [C10orf10] | 94.8 ± 1.7% | 63.9 ± 6.1% | 95.247 ± 0.086% | 94.42 ± 0.28% | 94.16 ± 0.87% | 92.8 ± 0.27%
MRTSYLLLFTLCLLLSEMASGGNFLTGLGHRSDHYNCVSSGGQCLYSACPIFTKIQGTCYRGKAKCCK [DEFB1] | 97.13 ± 0.85% | 84.4 ± 1.1% | 95.11 ± 0.27% | 92.98 ± 0.91% | 91.66 ± 0.67% | 92.239 ± 0.055%
MSEIRKDTLKAILLELECHFTWNLLKEDIDLFEVEDTIGQQLEFLTTKSRLALYNLLAYVKHLKGQNKDALECLEQAEEIIQQEHSDKEEVRSLVTWGNYAWVYYHMDQLEEAQKYTGKIGNVCKKLSSPSNYKLECPETDCEKGWALLKFGGKYYQKAKAAFEKALEVEPDNPEFNIGYAITVYRLDDSDREGSVKSFSLGPLRKAVTLNPDNSYIKVFLALKLQDVHAEAEGEKYIEEILDQISSQPYVLRYAAKFYRRKNSWNKALELLKKALEVTPTSSFLHHQMGLCYRAQMIQIKKATHNRPKGKDKLKVDELISSAIFHFKAAMERDSMFAFAYTDLANMYAEGGQYSNAEDIFRKALRLENITDDHKHQIHYHYGRFQEFHRKSENTAIHHYLEALKVKDRSPLRTKLTSALKKLSTKRLCHNALDVQSLSALGFVYKLEGEKRQAAEYYEKAQKIDPENAEFLTALCELRLSI [IFIT5] | 81.6 ± 2.9% | 50.4 ± 1.2% | 95.17 ± 0.24% | 95.34 ± 0.45% | 88.13 ± 0.37% | 90.56 ± 0.79%
MSIMDHSPTTGVVTVIVILIAIAALGALILGCWCYLRLQRISQSEDEESIVGDGETKEPFLLVQYSAKGPCVERKAKLMTPNGPEVHG [SNN] | 95.8 ± 1.9% | 86.47 ± 0.82% | 96.15 ± 0.19% | 95.59 ± 0.2% | 93.27 ± 0.64% | 92.87 ± 0.32%
MSLRGSLSRLLQTRVHSILKKSVHSVAVIGAPFSQGQKRKGVEHGPAAIREAGLMKRLSSLGCHLKDFGDLSFTPVPKDDLYNNLIVNPRSVGLANQELAEVVSRAVSDGYSCVTLGGDHSLAIGTISGHARHCPDLCVVWVDAHADINTPLTTSSGNLHGQPVSFLLRELQDKVPQLPGFSWIKPCISSASIVYIGLRDVDPPEHFILKNYDIQYFSMRDIDRLGIQKVMERTFDLLIGKRQRPIHLSFDIDAFDPTLAPATGTPVVGGLTYREGMYIAEEIHNTGLLSALDLVEVNPQLATSEEEAKTTANLAVDVIASSFGQTREGGHIVYDQLPTPSSPDESENQARVRI [ARG2] | 93.279 ± 0.073% | 64 ± 4.9% | 95.82 ± 0.36% | 95.52 ± 0.29% | 92.68 ± 0.49% | 93.532 ± 0.087%
